# Assay results taken from PMC9482650, “Quantitative fragmentomics allow affinity mapping of interactomes” (Nature Communications, 2022).
# Key:
# Assay in all cases: holdup assay
# Parameters in all cases: key: below the threshold = too weak to quantify, mostly under pKd 3.1 to 4
# [1] = target: T1, TJP3_3, O95049
# T1 sequence (O95049 375-456, limits assumed, looked up): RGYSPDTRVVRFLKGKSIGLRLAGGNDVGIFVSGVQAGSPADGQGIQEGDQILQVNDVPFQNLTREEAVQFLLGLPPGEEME
# [2] = target: T2, MPP6, Q9NZW5
# T2 sequence (Q9NZW5 125-219, limits assumed, looked up): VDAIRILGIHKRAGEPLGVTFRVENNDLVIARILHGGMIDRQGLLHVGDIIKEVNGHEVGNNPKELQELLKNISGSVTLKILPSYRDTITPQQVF
# [3] = target: T3, RAPGEF6, Q8TEU7
# T3 sequence (Q8TEU7 525-625, limits assumed, looked up): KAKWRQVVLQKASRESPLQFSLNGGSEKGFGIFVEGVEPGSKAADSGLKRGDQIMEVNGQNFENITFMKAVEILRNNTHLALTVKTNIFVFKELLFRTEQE
# [4] = target: T4, LIN7A, O14910
# T4 sequence (O14910 103-200, limits assumed, looked up): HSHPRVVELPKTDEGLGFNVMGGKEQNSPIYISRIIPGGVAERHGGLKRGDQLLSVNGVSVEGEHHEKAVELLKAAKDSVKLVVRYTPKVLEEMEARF
# [5] = target: T5, DLG3_3, Q92796
# T5 sequence (Q92796 374-475, limits assumed, looked up): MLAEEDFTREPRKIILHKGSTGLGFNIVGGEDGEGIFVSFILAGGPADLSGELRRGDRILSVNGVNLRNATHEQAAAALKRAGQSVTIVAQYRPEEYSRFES
# [6] = target: T6, APBA1_1, Q02410
# T6 sequence (Q02410 651-752, limits assumed, looked up): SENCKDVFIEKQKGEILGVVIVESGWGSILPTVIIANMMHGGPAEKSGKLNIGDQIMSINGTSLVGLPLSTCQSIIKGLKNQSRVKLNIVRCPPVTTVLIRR
# [7] = target: TJP1_3, Q07157
# TJP1_3, Q07157, sequence (Q07157 416-512): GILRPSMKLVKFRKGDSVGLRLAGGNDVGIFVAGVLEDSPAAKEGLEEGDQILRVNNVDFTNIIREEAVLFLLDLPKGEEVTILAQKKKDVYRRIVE
# [8] = target: DLG4_1, P78352
# DLG4_1, P78352, sequence (P78352 62-152): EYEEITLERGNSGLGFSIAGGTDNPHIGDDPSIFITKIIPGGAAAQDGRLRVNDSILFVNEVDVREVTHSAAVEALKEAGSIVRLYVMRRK
# [9] = target: GRID2IP_1, A4D2P6
# GRID2IP_1, A4D2P6, sequence (A4D2P6 1-87): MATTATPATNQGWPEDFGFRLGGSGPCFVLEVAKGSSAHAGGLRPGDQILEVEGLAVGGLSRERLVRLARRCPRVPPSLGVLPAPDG
# [10] = target: PICK1, Q9NRD5
# PICK1, Q9NRD5, sequence (Q9NRD5 17-115): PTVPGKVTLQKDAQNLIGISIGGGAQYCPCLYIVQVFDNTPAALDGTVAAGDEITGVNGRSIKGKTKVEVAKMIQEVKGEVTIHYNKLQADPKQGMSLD
# [11] = target: Inadl_9, Q8NI35
# Inadl_9, Q8NI35, sequence (Q8NI35 1530-1615): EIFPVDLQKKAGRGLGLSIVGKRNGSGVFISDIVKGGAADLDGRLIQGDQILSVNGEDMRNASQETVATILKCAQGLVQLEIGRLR
# [12] = target: GRASP, Q7Z6J2
# GRASP, Q7Z6J2, sequence (Q7Z6J2 96-193): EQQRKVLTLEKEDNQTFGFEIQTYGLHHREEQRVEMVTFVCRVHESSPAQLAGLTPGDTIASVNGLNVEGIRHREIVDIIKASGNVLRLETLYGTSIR
# [13] = target: T7, SNTB1, Q13884
# T7 sequence (Q13884 107-205, limits assumed, looked up): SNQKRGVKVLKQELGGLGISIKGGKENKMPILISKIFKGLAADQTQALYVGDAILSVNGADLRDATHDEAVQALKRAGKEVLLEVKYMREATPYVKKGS
# [14] = target: MAGI1_1, Q96QZ7
# MAGI1_1, Q96QZ7, sequence (Q96QZ7 1-106): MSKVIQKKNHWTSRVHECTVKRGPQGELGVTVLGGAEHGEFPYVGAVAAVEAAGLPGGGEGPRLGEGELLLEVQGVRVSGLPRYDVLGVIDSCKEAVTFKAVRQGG
# [15] = target: T8, ARHGAP21, Q5T5U3
# T8 sequence (Q5T5U3 45-169, limits assumed, looked up): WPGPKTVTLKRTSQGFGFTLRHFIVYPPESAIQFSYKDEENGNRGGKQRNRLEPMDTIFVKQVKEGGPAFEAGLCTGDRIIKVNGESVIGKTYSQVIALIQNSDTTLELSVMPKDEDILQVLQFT
# [16] = target: T9, GRIP1_7, Q9Y3R0
# T9 sequence (Q9Y3R0 999-1096, limits assumed, looked up): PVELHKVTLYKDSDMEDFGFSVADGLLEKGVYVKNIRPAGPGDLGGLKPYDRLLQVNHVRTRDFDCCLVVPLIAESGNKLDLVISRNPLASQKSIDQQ
# [17] = target: T10, APBA1_2, Q02410
# T10 sequence (Q02410 742-832, limits assumed, looked up): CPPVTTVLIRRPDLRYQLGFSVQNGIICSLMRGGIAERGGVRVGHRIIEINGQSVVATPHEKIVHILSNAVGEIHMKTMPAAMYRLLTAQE
# [18] = target: NHERF2_2, Q15599
# NHERF2_2, Q15599, sequence (Q15599 142-238): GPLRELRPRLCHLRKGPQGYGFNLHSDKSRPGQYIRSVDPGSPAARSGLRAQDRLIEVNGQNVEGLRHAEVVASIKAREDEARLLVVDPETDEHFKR
# [19] = target: T11, HTRA4, P83105
# T11 sequence (P83105 378-476, limits assumed, looked up): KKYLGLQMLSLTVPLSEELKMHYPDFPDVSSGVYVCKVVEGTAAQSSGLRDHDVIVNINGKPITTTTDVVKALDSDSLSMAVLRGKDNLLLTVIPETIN
# [20] = target: TJP2_1, Q9UDY2
# TJP2_1, Q9UDY2, sequence (Q9UDY2 24-128): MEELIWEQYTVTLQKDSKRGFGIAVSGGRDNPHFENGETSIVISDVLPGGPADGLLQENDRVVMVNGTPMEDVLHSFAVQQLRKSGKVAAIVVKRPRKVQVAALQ
# [21] = target: NOS1, P29475
# NOS1, P29475, sequence (P29475 9-101): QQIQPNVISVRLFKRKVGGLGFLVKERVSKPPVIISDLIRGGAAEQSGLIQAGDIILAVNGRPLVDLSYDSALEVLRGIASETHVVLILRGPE
# [22] = target: NHERF4_4, Q86UT5
# NHERF4_4, Q86UT5, sequence (Q86UT5 464-550): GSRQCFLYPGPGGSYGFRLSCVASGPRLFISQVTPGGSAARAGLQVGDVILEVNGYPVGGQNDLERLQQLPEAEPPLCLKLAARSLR
# [23] = target: Inadl_2, Q8NI35
# Inadl_2, Q8NI35, sequence (Q8NI35 238-335): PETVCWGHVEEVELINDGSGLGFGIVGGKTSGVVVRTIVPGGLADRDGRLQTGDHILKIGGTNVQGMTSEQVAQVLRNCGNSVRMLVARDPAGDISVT
# [24] = target: T12, LNX2_2, Q8N448
# T12 sequence (Q8N448 334-432, limits assumed, looked up): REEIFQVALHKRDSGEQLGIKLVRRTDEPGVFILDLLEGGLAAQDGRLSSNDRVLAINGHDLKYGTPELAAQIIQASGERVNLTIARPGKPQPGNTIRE
# [25] = target: NHERF4_1, Q86UT5-2
# NHERF4_1, Q86UT5-2, sequence (Q86UT5 other isoform, or with tags, fused parts or gaps): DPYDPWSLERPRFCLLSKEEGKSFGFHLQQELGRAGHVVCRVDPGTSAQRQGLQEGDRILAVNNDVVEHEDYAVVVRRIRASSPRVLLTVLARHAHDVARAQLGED
# [26] = plain residues with an end cap or a label only (N-terminal biotin on a linker: ado-ado)
# [27] = plain residues with an end cap or a label only (N-terminal biotin on a linker: (peg)3)
binder,measurement,setting,value
"RTQSSDSAYV [GJD2, Q9UKL4]",pKd,[1]; [26],3.71
same,pKd,[2]; [26],below the threshold
same,pKd,[3]; [26],below the threshold
same,pKd,[4]; [26],below the threshold
same,pKd,[5]; [26],below the threshold
same,pKd,[6]; [26],below the threshold
same,pKd,[7]; [26],below the threshold
same,pKd,[8]; [26],below the threshold
same,pKd,[9]; [26],below the threshold
same,pKd,[10]; [26],below the threshold
same,pKd,[11]; [26],3.85
same,pKd,[12]; [26],3.48
same,pKd,[13]; [26],below the threshold
same,pKd,[14]; [26],below the threshold
same,pKd,[15]; [26],3.62
same,pKd,[16]; [26],below the threshold
same,pKd,[17]; [26],4.09
same,pKd,[18]; [26],3.49
same,pKd,[19]; [26],below the threshold
same,pKd,[20]; [26],4.09
same,pKd,[21]; [26],3.95
same,pKd,[22]; [26],below the threshold
same,pKd,[23]; [26],below the threshold
same,pKd,[24]; [26],4.65
same,pKd,[25]; [26],3.6
"RPGFASESKV [ADRB1, P08588]",pKd,[1]; [26],below the threshold
same,pKd,[2]; [26],below the threshold
same,pKd,[3]; [26],below the threshold
same,pKd,[4]; [26],below the threshold
same,pKd,[5]; [26],3.7
same,pKd,[6]; [26],below the threshold
same,pKd,[7]; [26],below the threshold
same,pKd,[8]; [26],4.03
same,pKd,[9]; [26],below the threshold
same,pKd,[10]; [26],below the threshold
same,pKd,[11]; [26],3.47
same,pKd,[12]; [26],below the threshold
same,pKd,[13]; [26],4.35
same,pKd,[14]; [26],below the threshold
same,pKd,[15]; [26],3.98
same,pKd,[16]; [26],below the threshold
same,pKd,[17]; [26],3.82
same,pKd,[18]; [26],below the threshold
same,pKd,[19]; [26],below the threshold
same,pKd,[20]; [26],below the threshold
same,pKd,[21]; [26],3.6
same,pKd,[22]; [26],below the threshold
same,pKd,[23]; [26],below the threshold
same,pKd,[24]; [26],below the threshold
same,pKd,[25]; [26],below the threshold
"PLDSQQHTEV [FAT1, Q14517]",pKd,[1]; [26],below the threshold
same,pKd,[2]; [26],below the threshold
same,pKd,[3]; [26],below the threshold
same,pKd,[4]; [26],below the threshold
same,pKd,[5]; [26],below the threshold
same,pKd,[6]; [26],below the threshold
same,pKd,[7]; [26],below the threshold
same,pKd,[8]; [26],4.41
same,pKd,[9]; [26],below the threshold
same,pKd,[10]; [26],below the threshold
same,pKd,[11]; [26],3.69
same,pKd,[12]; [26],4.34
same,pKd,[13]; [26],4.32
same,pKd,[14]; [26],below the threshold
same,pKd,[15]; [26],3.85
same,pKd,[16]; [26],below the threshold
same,pKd,[17]; [26],3.7
same,pKd,[18]; [26],below the threshold
same,pKd,[19]; [26],4.26
same,pKd,[20]; [26],below the threshold
same,pKd,[21]; [26],below the threshold
same,pKd,[22]; [26],below the threshold
same,pKd,[23]; [26],below the threshold
same,pKd,[24]; [26],4.35
same,pKd,[25]; [26],below the threshold
"YDEPTTTTSVPL [SARS-Cov2-3a, P0DTC3]",pKd,[1]; [27],below the threshold
same,pKd,[2]; [27],below the threshold
same,pKd,[3]; [27],below the threshold
same,pKd,[4]; [27],below the threshold
same,pKd,[5]; [27],below the threshold
same,pKd,[6]; [27],below the threshold
same,pKd,[7]; [27],below the threshold
same,pKd,[8]; [27],below the threshold
same,pKd,[9]; [27],below the threshold
same,pKd,[10]; [27],below the threshold
same,pKd,[11]; [27],below the threshold
same,pKd,[12]; [27],3.83
same,pKd,[13]; [27],below the threshold
same,pKd,[14]; [27],below the threshold
same,pKd,[15]; [27],3.75
same,pKd,[16]; [27],below the threshold
same,pKd,[17]; [27],below the threshold
same,pKd,[18]; [27],below the threshold
same,pKd,[19]; [27],below the threshold
same,pKd,[20]; [27],below the threshold
same,pKd,[21]; [27],below the threshold
same,pKd,[22]; [27],below the threshold
same,pKd,[23]; [27],below the threshold
same,pKd,[24]; [27],below the threshold
same,pKd,[25]; [27],4.43
"SRPTKGPTLL [PLEKHH2, Q8IVE3]",pKd,[1]; [26],below the threshold
same,pKd,[2]; [26],below the threshold
same,pKd,[3]; [26],below the threshold
same,pKd,[4]; [26],below the threshold
same,pKd,[5]; [26],below the threshold
same,pKd,[6]; [26],below the threshold
same,pKd,[7]; [26],below the threshold
same,pKd,[8]; [26],3.91
same,pKd,[9]; [26],below the threshold
same,pKd,[10]; [26],below the threshold
same,pKd,[11]; [26],3.5
same,pKd,[12]; [26],5.22
same,pKd,[13]; [26],below the threshold
same,pKd,[14]; [26],below the threshold
same,pKd,[15]; [26],4.02
same,pKd,[16]; [26],below the threshold
same,pKd,[17]; [26],4.25
same,pKd,[18]; [26],below the threshold
same,pKd,[19]; [26],below the threshold
same,pKd,[20]; [26],3.57
same,pKd,[21]; [26],4.35
same,pKd,[22]; [26],3.89
same,pKd,[23]; [26],below the threshold
same,pKd,[24]; [26],below the threshold
same,pKd,[25]; [26],4.41
"LTAQEQPVYI [APBA1, Q02410]",pKd,[1]; [26],3.67
same,pKd,[2]; [26],below the threshold
same,pKd,[3]; [26],below the threshold
same,pKd,[4]; [26],below the threshold
same,pKd,[5]; [26],below the threshold
same,pKd,[6]; [26],3.65
same,pKd,[7]; [26],below the threshold
same,pKd,[8]; [26],below the threshold
same,pKd,[9]; [26],below the threshold
same,pKd,[10]; [26],below the threshold
same,pKd,[11]; [26],4.6
same,pKd,[12]; [26],below the threshold
same,pKd,[13]; [26],below the threshold
same,pKd,[14]; [26],below the threshold
same,pKd,[15]; [26],3.57
same,pKd,[16]; [26],below the threshold
same,pKd,[17]; [26],4.36
same,pKd,[18]; [26],below the threshold
same,pKd,[19]; [26],4.89
same,pKd,[20]; [26],below the threshold
same,pKd,[21]; [26],4.07
same,pKd,[22]; [26],below the threshold
same,pKd,[23]; [26],3.72
same,pKd,[24]; [26],4.9
same,pKd,[25]; [26],below the threshold
